This is an account of results in article PMC3879356.

The target of the assay is cytosolic domain of CAML (CAMLcyt), GST-tagged. The assay is described as follows: SPR; WRBcc or CAMLcyt immobilised on a HC1000m sensorchip (Reichert SR7000DC); analyte TRC40wt or TRC40wt/RAMP4 in PBS, 15°C, 40 µl/min, injected 270 s, dissociation 12 min; average of three independent measurements. A general note: Surface plasmon resonance follows binding to a sensor surface in real time, without labels.

Chain of TRC40/RAMP4 complex (MBP-TRC40/HZZ-RAMP4op protein complex) (O43681 whole entry): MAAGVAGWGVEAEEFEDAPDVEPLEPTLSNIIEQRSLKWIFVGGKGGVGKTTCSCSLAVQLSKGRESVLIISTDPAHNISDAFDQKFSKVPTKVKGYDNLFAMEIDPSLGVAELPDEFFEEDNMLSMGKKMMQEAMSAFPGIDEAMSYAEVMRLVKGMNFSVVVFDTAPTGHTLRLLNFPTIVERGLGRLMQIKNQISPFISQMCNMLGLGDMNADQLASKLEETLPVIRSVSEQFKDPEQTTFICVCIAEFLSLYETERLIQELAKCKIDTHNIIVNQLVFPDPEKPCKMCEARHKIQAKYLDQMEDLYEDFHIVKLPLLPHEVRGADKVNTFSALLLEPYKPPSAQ
Chain of TRC40/RAMP4 complex (MBP-TRC40/HZZ-RAMP4op protein complex) (Q9Y6X1 whole entry): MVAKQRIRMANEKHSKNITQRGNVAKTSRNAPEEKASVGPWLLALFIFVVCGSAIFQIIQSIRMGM

The substance “TRC40/RAMP4 complex (MBP-TRC40/HZZ-RAMP4op protein complex) (from UniProt O43681 1-348; Q9Y6X1 1-66)” came in with a Kd of 34 nM.

By Kd is commonly meant the equilibrium constant for the complex coming apart.
